Measured values as given in patent US20180362668A1 (JIANGSU ALPHAMAB BIOPHARMACEUTICALS, published 2018).

Assays:
[1] = biological target: the molecule itself; assay: non-reducing SDS-PAGE densitometry of Protein A-purified co-transfection product; chain A:chain B vectors 1:1
Excerpt: The cotransfection ratio of recombinant expression vector of the chain A to that of the chain B was 1:1.

[2] = biological target: the molecule itself; assay: non-reducing SDS-PAGE densitometry of Protein A-purified co-transfection product; chain A:chain B vectors 1:4
Excerpt: (§1) The cotransfection ratio of recombinant expression vector of the chain A to that of the chain B was 4:1, 1:1 and 1:4.

[3] = biological target: the molecule itself; assay: non-reducing SDS-PAGE densitometry of Protein A-purified co-transfection product; chain A:chain B vectors 1:1; remark: listed apart in the source
Excerpt: as §1

[4] = biological target: the molecule itself; assay: non-reducing SDS-PAGE densitometry of Protein A-purified co-transfection product; chain A:chain B vectors 4:1
Excerpt: as §1

Row | Protein | Proportion of Fc homodimer (%) [1] | ScFv-Fc homodimer (%) [1] | also measured
1 | Fc protein chain B with D356C + T366S + L368A + Y407V + K360E + Q347E (other, also called combination 6 chain B) DKTHTCPPCPAPELLGGPSVFLFPPKPKDTLMISRTPEVTCVVVDVSHEDPEVKFNWYVDGVEVHNAKTKPREEQYNSTYRVVSVLTVLHQDWLNGKEYKCKVSNKALPAPIEKTISKAKGQPREPEVYTLPPSRCELTENQVSLSCAVKGFYPSDIAVEWESNGQPENNYKTTPPVLDSDGSFFLVSKLTVDKSRWQQGNVFSCSVMHEALHNHYTQKSLSLSPGK | 24% | – | –
2 | Fc protein chain B with D356C + T366S + L368A + Y407V + F405K + Q347R (other, also called combination 7 chain B) DKTHTCPPCPAPELLGGPSVFLFPPKPKDTLMISRTPEVTCVVVDVSHEDPEVKFNWYVDGVEVHNAKTKPREEQYNSTYRVVSVLTVLHQDWLNGKEYKCKVSNKALPAPIEKTISKAKGQPREPRVYTLPPSRCELTKNQVSLSCAVKGFYPSDIAVEWESNGQPENNYKTTPPVLDSDGSFKLVSKLTVDKSRWQQGNVFSCSVMHEALHNHYTQKSLSLSPGK | 12% | – | –
3 | Fc protein chain B with D356C + T366S + L368A + Y407V + F405K + K360E + Q347E (other, also called combination 8 chain B) DKTHTCPPCPAPELLGGPSVFLFPPKPKDTLMISRTPEVTCVVVDVSHEDPEVKFNWYVDGVEVHNAKTKPREEQYNSTYRVVSVLTVLHQDWLNGKEYKCKVSNKALPAPIEKTISKAKGQPREPEVYTLPPSRCELTENQVSLSCAVKGFYPSDIAVEWESNGQPENNYKTTPPVLDSDGSFKLVSKLTVDKSRWQQGNVFSCSVMHEALHNHYTQKSLSLSPGK | 8% | – | –
4 | ScFv-Fc fusion protein chain A with Y349C + T366W + K409A + L368E (Fc fusion, Positions are EU index; also called combination 9 chain A) EVQLLESGGGVVQPGRSLRLSCIASGFTFSSYPMTWVRQAPGKGLEWVASISYDGSYKYKADSMKGRLTISRDNSKNTLYLEMNSLTAEDTAVYYCARTAFFNAYDFWGQGTLVTVSSASTKGPSVGGGGSGGGGSEIVMTQSPATLSVSPGERATLSCRASQSVRSNLAWYQQKPGQAPRLLIYAASTRATGIPARFSGSGSGTEFTLTISSLQSEDFAVYYCQQYNEWFRTSGQGTKVEIKRDKTHTCPPCPAPELLGGPSVFLFPPKPKDTLMISRTPEVTCVVVDVSHENPEVKFNWYVDGVEVHNAKTKPREEQYNSTYRVVSVLTVLHQDWLNGKEYKCKVSNKALPAPIEKTISKAKGQPREPQVCTLPPSRDELTKNQVSLWCEVKGFYPSDIAVEWESNGQPENNYKTTPPVLDSDGSFFLYSALTVDKSRWQQGNVFSCSVMHEALHNHYTQKSLSLSPGK | – | 39% | –
5 | ScFv-Fc fusion protein chain A with Y349C + T366W + F405K + Q347R (Fc fusion, Positions are EU index; also called combination 6 chain A) EVQLLESGGGVVQPGRSLRLSCIASGFTFSSYPMTWVRQAPGKGLEWVASISYDGSYKYKADSMKGRLTISRDNSKNTLYLEMNSLTAEDTAVYYCARTAFFNAYDFWGQGTLVTVSSASTKGPSVGGGGSGGGGSEIVMTQSPATLSVSPGERATLSCRASQSVRSNLAWYQQKPGQAPRLLIYAASTRATGIPARFSGSGSGTEFTLTISSLQSEDFAVYYCQQYNEWFRTSGQGTKVEIKRDKTHTCPPCPAPELLGGPSVFLFPPKPKDTLMISRTPEVTCVVVDVSHENPEVKFNWYVDGVEVHNAKTKPREEQYNSTYRVVSVLTVLHQDWLNGKEYKCKVSNKALPAPIEKTISKAKGQPREPRVCTLPPSRDELTKNQVSLWCLVKGFYPSDIAVEWESNGQPENNYKTTPPVLDSDGSFKLYSKLTVDKSRWQQGNVFSCSVMHEALHNHYTQKSLSLSPGK | – | 14% | –
6 | ScFv-Fc fusion protein chain A with Y349C + T366W + K409A + K360E + Q347E (Fc fusion, Positions are EU index; also called combination 7 chain A) EVQLLESGGGVVQPGRSLRLSCIASGFTFSSYPMTWVRQAPGKGLEWVASISYDGSYKYKADSMKGRLTISRDNSKNTLYLEMNSLTAEDTAVYYCARTAFFNAYDFWGQGTLVTVSSASTKGPSVGGGGSGGGGSEIVMTQSPATLSVSPGERATLSCRASQSVRSNLAWYQQKPGQAPRLLIYAASTRATGIPARFSGSGSGTEFTLTISSLQSEDFAVYYCQQYNEWFRTSGQGTKVEIKRDKTHTCPPCPAPELLGGPSVFLFPPKPKDTLMISRTPEVTCVVVDVSHENPEVKFNWYVDGVEVHNAKTKPREEQYNSTYRVVSVLTVLHQDWLNGKEYKCKVSNKALPAPIEKTISKAKGQPREPEVCTLPPSRDELTENQVSLWCLVKGFYPSDIAVEWESNGQPENNYKTTPPVLDSDGSFFLYSALTVDKSRWQQGNVFSCSVMHEALHNHYTQKSLSLSPGK | – | 24% | –
7 | ScFv-Fc fusion protein chain A with Y349C + T366W + F405K + K360E + Q347E (Fc fusion, Positions are EU index; also called combination 5 chain A) EVQLLESGGGVVQPGRSLRLSCIASGFTFSSYPMTWVRQAPGKGLEWVASISYDGSYKYKADSMKGRLTISRDNSKNTLYLEMNSLTAEDTAVYYCARTAFFNAYDFWGQGTLVTVSSASTKGPSVGGGGSGGGGSEIVMTQSPATLSVSPGERATLSCRASQSVRSNLAWYQQKPGQAPRLLIYAASTRATGIPARFSGSGSGTEFTLTISSLQSEDFAVYYCQQYNEWFRTSGQGTKVEIKRDKTHTCPPCPAPELLGGPSVFLFPPKPKDTLMISRTPEVTCVVVDVSHENPEVKFNWYVDGVEVHNAKTKPREEQYNSTYRVVSVLTVLHQDWLNGKEYKCKVSNKALPAPIEKTISKAKGQPREPEVCTLPPSRDELTENQVSLWCLVKGFYPSDIAVEWESNGQPENNYKTTPPVLDSDGSFKLYSKLTVDKSRWQQGNVFSCSVMHEALHNHYTQKSLSLSPGK | – | 14% | –
8 | ScFv-Fc fusion protein chain A with Y349C + T366W + K409A + Q347R (Fc fusion, Positions are EU index; also called combination 8 chain A) EVQLLESGGGVVQPGRSLRLSCIASGFTFSSYPMTWVRQAPGKGLEWVASISYDGSYKYKADSMKGRLTISRDNSKNTLYLEMNSLTAEDTAVYYCARTAFFNAYDFWGQGTLVTVSSASTKGPSVGGGGSGGGGSEIVMTQSPATLSVSPGERATLSCRASQSVRSNLAWYQQKPGQAPRLLIYAASTRATGIPARFSGSGSGTEFTLTISSLQSEDFAVYYCQQYNEWFRTSGQGTKVEIKRDKTHTCPPCPAPELLGGPSVFLFPPKPKDTLMISRTPEVTCVVVDVSHENPEVKFNWYVDGVEVHNAKTKPREEQYNSTYRVVSVLTVLHQDWLNGKEYKCKVSNKALPAPIEKTISKAKGQPREPRVCTLPPSRDELTKNQVSLWCLVKGFYPSDIAVEWESNGQPENNYKTTPPVLDSDGSFFLYSALTVDKSRWQQGNVFSCSVMHEALHNHYTQKSLSLSPGK | – | 21% | –
9 | ScFv-Fc fusion protein chain A with T366W + K409A + Y349D (Fc fusion, Positions are EU index; it is not used here; also called combination 12 chain A) EVQLLESGGGVVQPGRSLRLSCIASGFTFSSYPMTWVRQAPGKGLEWVASISYDGSYKYKADSMKGRLTISRDNSKNTLYLEMNSLTAEDTAVYYCARTAFFNAYDFWGQGTLVTVSSASTKGPSVGGGGSGGGGSEIVMTQSPATLSVSPGERATLSCRASQSVRSNLAWYQQKPGQAPRLLIYAASTRATGIPARFSGSGSGTEFTLTISSLQSEDFAVYYCQQYNEWFRTSGQGTKVEIKRDKTHTCPPCPAPELLGGPSVFLFPPKPKDTLMISRTPEVTCVVVDVSHENPEVKFNWYVDGVEVHNAKTKPREEQYNSTYRVVSVLTVLHQDWLNGKEYKCKVSNKALPAPIEKTISKAKGQPREPQVDTLPPSRDELTKNQVSLWCLVKGFYPSDIAVEWESNGQPENNYKTTPPVLDSDGSFFLYSALTVDKSRWQQGNVFSCSVMHEALHNHYTQKSLSLSPGK | – | – | ScFv-Fc homodimer (%) [2]: 9%; ScFv-Fc homodimer (%) [3]: 14%; ScFv-Fc homodimer (%) [4]: 48%
